Results taken from US20240228562A1, “NOVEL LIPOCALIN MUTEINS SPECIFIC FOR CONNECTIVE TISSUE GROWTH FACTOR (CTGF)” (PIERIS PHARMACEUTICALS GMBH, priority 2021, published 2024).

T1: Rat CTGF (Rattus norvegicus, UniProt Q9R1E9)
T1 construct: purchased R&D Systems
T1 sequence (Q9R1E9 25-347): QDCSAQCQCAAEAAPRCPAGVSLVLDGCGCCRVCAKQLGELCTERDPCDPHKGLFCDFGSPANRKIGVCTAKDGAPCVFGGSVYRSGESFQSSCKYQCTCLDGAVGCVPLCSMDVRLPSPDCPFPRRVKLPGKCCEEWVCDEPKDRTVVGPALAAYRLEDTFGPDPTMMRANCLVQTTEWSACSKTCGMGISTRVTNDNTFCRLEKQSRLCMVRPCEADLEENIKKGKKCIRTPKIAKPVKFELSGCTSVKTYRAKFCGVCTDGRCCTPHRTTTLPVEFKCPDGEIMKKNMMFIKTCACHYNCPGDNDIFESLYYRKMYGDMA

T2: human CTGF (Homo sapiens, UniProt P29279, H83D)
T2 construct: purchased R&D Systems
T2 sequence (P29279 27-349 H83D): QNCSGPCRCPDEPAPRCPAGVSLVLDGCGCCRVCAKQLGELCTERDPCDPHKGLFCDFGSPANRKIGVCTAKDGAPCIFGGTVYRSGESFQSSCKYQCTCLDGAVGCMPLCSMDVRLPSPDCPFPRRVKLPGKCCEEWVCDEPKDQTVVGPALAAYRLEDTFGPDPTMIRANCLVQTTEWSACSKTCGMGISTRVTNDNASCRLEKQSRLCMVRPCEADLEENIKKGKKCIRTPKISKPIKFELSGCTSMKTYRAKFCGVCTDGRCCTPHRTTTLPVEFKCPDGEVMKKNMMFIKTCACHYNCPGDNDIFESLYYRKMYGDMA

T3: Murine CTGF (Mus musculus, UniProt P29268)
T3 construct: purchased Abbexa
T3 sequence (P29268 26-348): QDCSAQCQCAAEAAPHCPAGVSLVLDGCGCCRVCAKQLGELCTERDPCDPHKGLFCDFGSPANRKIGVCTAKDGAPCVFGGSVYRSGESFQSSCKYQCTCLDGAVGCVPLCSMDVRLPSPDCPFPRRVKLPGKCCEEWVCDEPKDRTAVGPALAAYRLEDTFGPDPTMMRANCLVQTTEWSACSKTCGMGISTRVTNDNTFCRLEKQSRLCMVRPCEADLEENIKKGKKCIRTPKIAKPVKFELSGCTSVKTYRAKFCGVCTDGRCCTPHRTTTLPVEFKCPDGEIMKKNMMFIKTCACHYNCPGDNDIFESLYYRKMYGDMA


Legend:
[1] = molecular target: T4, muCTGF domains 1 and 2 with human Fc tag (Mus musculus, UniProt P29268); assay: ELISA binding to CTGF fragments, murine CTGF domains 1 and 2; settings: coated 1 μg/ml, muteins from 1000 nM; for EC50: read-out: EC Murine CTGF1-2-huFc
T4 construct: purchased Evitria
Procedure: (§1) Binding of muteins to fragments of human and murine CTGF was tested by an ELISA assay. In detail, a 384-well plate suitable for fluorescence measurements (Greiner FLUOTRAC™ 600, black flat bottom, high-binding) was coated with 20 μl of human (R&D Systems, SEQ ID NO 79) and murine CTGF (Biozol, SEQ ID NO: 80) or fragments thereof (Evitria, huCTGF domains 1 and 2 with human Fc tag (SEQ ID NO 77) and muCTGF domains 1 and 2 with human Fc tag (SEQ ID NO 78)) at a concentration of 1 μg/ml in PBS over night at 4° C. After washing with PBS with 0.05% Tween 20, wells were blocked with 100 μl blocking buffer containing 0.1% Tween 20 and 2% BSA (PBS-T/BSA) for 1 h at room temperature. 20 μl of serially diluted muteins starting at 1000 nM were incubated in PBS-T/BSA for 1 h at room temperature.
(§2) The residual supernatants were discarded and 20 μl HRP-labeled anti-Strep-Tag antibody was added at a predetermined optimal concentration in PBS-T/BSA and incubated for 1 h at RT. After washing, 20 μl fluorogenic HRP substrate (QuantaBlu, Thermo) was added to each well, and the reaction was allowed to proceed for 5 to 25 minutes. The fluorescence intensity of every well on the plate was read using a fluorescence microplate reader (Tecan). Curve fitting was performed using GraphPad Prism 7 software.

[2] = molecular target: T1, Rat CTGF; assay: ELISA binding to rat CTGF (Example 9); settings: muteins from 1000 nM; for EC50: read-out: EC Rat CTGF
[3] = molecular target: T5, human CTGF (Homo sapiens, UniProt P29279, H83D); assay: SPR binding kinetics and affinity, human CTGF; settings: 25° C., 1:1 binding model
T5 construct: purchased Creative Biomart
Method in brief: (§3)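 Biacore SPR at 25 °C; CTGF either Fc-captured via anti-human IgG (HBS-EP+) or amine-coupled to CM5 (300–1100 RU). Muteins injected 180 s contact, 900–3600 s dissociation, 30 μL/min.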
T5 sequence (P29279 with tags, fused parts or gaps H83D): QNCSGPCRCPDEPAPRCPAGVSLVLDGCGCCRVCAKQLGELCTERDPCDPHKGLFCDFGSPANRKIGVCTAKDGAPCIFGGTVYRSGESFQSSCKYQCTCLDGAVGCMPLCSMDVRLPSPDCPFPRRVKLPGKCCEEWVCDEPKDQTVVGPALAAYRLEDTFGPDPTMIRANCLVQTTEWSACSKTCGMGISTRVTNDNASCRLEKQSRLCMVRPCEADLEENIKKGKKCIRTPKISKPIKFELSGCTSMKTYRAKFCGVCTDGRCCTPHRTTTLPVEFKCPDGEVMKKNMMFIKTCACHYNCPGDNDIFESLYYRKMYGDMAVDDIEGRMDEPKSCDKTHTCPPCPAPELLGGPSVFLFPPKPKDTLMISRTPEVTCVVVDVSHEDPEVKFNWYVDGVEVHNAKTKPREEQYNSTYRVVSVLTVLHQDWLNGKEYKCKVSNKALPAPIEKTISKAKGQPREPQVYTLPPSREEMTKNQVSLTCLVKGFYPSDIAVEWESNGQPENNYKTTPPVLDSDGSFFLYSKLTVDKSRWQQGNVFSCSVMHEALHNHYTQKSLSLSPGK

[4] = molecular target: T6, human CTGF (Homo sapiens, UniProt P29279); assay: SPR binding kinetics and affinity, human CTGF; settings: 25° C., 1:1 binding model
T6 construct: purchased Creative Biomart
Method in brief: as §3

[5] = molecular target: T2, human CTGF; assay: ELISA binding to full-length human CTGF (Example 9); settings: coated 1 μg/ml, muteins from 1000 nM, read-out: EC Human CTGF
Procedure: as §1, §2

[6] = molecular target: T3, Murine CTGF; assay: SPR binding kinetics and affinity, murine CTGF; design: key to Murine CTGF kon / Murine CTGF koff / Murine CTGF KD: B binding without determination of kinetics constants; settings: 25° C., 1:1 binding model
Method in brief: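 Targets either amine-coupled to CM5 chip (300–1100 RU; Fc-tagged human, untagged rat/murine) or Fc-captured via anti-human IgG; muteins injected 180 s contact, 900–3600 s dissociation, 30 μL/min, 25° C. Double-referenced sensorgrams fit to 1:1 model giving kon, koff and KD.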

T6 sequence (P29279 with tags, fused parts or gaps H83D): as above
T4 sequence (P29268 with tags, fused parts or gaps): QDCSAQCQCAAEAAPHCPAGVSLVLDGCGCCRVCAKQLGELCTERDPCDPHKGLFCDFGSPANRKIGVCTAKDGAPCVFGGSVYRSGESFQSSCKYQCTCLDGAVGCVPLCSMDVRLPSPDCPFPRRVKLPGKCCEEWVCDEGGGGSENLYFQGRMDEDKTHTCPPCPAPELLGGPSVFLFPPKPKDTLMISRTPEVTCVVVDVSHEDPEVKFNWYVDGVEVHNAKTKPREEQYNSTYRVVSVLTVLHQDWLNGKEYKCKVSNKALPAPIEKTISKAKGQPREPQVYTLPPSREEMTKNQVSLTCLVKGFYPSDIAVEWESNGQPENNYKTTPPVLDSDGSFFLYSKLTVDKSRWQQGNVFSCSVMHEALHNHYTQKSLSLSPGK

| EC50 [1] [nM] | EC50 [2] [nM] | Kd [3] [nM] | human CTGF kon [3] [M⁻¹ s⁻¹] | human CTGF koff [4] [s⁻¹] | EC50 [5] [nM] | Murine CTGF KD [6] | Murine CTGF koff [6] | Murine CTGF kon [6] | EC Murine CTGF1-2-huFc [1] | EC Rat CTGF [2] | Kd [6] [nM] | Molecule |
| --- | --- | --- | --- | --- | --- | --- | --- | --- | --- | --- | --- | --- |
| 17 | 20 | 11.2 | 100000 | 0.00112 | 11 |  |  |  |  |  |  | SEQ ID NO: 29: parent CTGF-binding hNGAL lipocalin mutein (protein, lipocalin mutein) QDSTSDLIPAPPLSKVPLQQNFQDNQFHGKWYVVGWAGNIKLREDKDPFKMSATIYELKEDKSYNVTEVVFEQKKCHYIIKTFVPGSQPGEFTLGDIKSPPGETSSLVRVVSTNYNQHAMVFFKKVFQNREFFWITLYGRTKELTSELKENFIRFSKSLGLPENHIVFPVPIDQCIDG |
| 14 | 23 | 9.27 | 26800 | 0.000248 | 11 |  |  |  |  |  |  | SEQ ID NO: 25: parent CTGF-binding hNGAL lipocalin mutein (protein, lipocalin mutein) QDSTSDLIPAPPLSKVPLQQNFQDNQFHGKWYVVGMAGNFRLREDKDPSKMGATIYELKEDKSYNVTQVQFDDKKCLYVIETFVPGSQPGEFTLGAIKSFPGFTSQLVRVVSTNYNQHAMVFFKKVYQNREVFWITLYGRTKELTSELKENFIRFSKSLGLPENHIVFPVPIDQCIDG |
| 14 | 41 | 60.2 | 97600 | 0.00587 | 34 | B | B | B |  |  |  | SEQ ID NO: 7: parent CTGF-binding hNGAL lipocalin mutein (protein, lipocalin mutein) QDSTSDLIPAPPLSKVPLQQNFQDNQFHGKWYVVGLAGNYGLRTDKRPSKMFATIYELKEDKSYDVTSVRFEQERCHYTIRTFVPGSQPGEFTTGSIKSRPGQTSSLVRVVSTNYNQHAMVFFKSVIQNREYFAITLYGRTKELTSELKENFIRFSKSLGLPENHIVFPVPIDQCIDG |
|  |  | 37.5 | 200000 | 0.00749 | 6.9 | B | B | B | n.b. | weak |  | SEQ ID NO: 3: parent CTGF-binding hNGAL lipocalin mutein (protein, lipocalin mutein) QDSTSDLIPAPPLSKVPLQQNFQDNQFHGKWYVVGRAGNNRLREDKDPPKMWATIYELKEDKSYNVTHVHFMTKKCRYIIDTFVPGSQPGEFTLGAIKSGPGMTSPLVRIVSTNYNQHAMVFFKWVNQNREWFTITLYGRTKELTSELKENFIRFSKSLGLPENHIVFPVPIDQCIDG |
|  |  |  | 122000 | 9.42e-06 |  | B | B | B |  |  |  | SEQ ID NO: 23: optimized CTGF-binding hNGAL lipocalin mutein (protein, lipocalin mutein) QDSTSDLIPAPPLSKVPLQQNFQDNQFQGKWYVVGVAGNAILRPDKQPAKMFATIYELKEDKSYDVTSVRFEAKSCKYTIKTFVPGSQPGEFTSGQIKSAPGQTSTLVRVVSTNYNQHAMVFFKHVSQNREIFVITLYGRTKELTSELKENFIRFSKSLGLPENHIVFPVPIDQCIDG |
|  |  |  | 81700 | 4.47e-05 |  |  | 4.51e-05 s⁻¹ | 129000 M⁻¹ s⁻¹ |  |  |  | SEQ ID NO: 15: optimized CTGF-binding hNGAL lipocalin mutein (protein, lipocalin mutein) QDSTSDLIPAPPLSKVPLQQNFQDNQFQGKWYVVGLAGNAILREDKQPAKMFATIYELKEDKSYDVTSVRFEAKSCKYTIKTFVPGSQPGEFTAGYIKSAPGQTSTLVRVVSTNYNQHAMVFFKHVTQNREIFVITLYGRTKELTSELKENFIRFSKSLGLPENHIVFPVPIDQCIDG |
| 5.8 | 30 | 12.8 | 79800 | 0.00102 | 14 |  | 0.000832 s⁻¹ | 133000 M⁻¹ s⁻¹ |  |  | 6.26 | SEQ ID NO: 9: parent CTGF-binding hNGAL lipocalin mutein (protein, lipocalin mutein) QDSTSDLIPAPPLSKVPLQQNFQDNQFHGKWYVVGLAGNKILRIDKQPAKMFATIYELKEDKSYDVTSVRFEARSCSYTIKTFVPGSQPGEFTAGNIKSAPGQTSTLVRVVSTNYNQHAMVFFKHVSQNRETFVITLYGRTKELTSELKENFIRFSKSLGLPENHIVFPVPIDQCIDG |
